We go through one sequence from publication PMC12510224.

This data set concerns the target MDM2(S395D) S395D (UniProt Q00987). Kind of data set: RNA co-IP (anti-MDM2 4B2) with RT-qPCR. The conditions noted are these: RNA co-IP: 50 mM Tris pH 7.5, 150 mM NaCl, 0.01 mM ZnSO4, 2 mM MgCl2, 0.02 mg/mL yeast tRNA, 0.2 mg/mL BSA, room temperature, pull-down overnight at 4 C. On the technique in general: Real-time PCR tracks product formation cycle by cycle.

MDM2(S395D) S395D, sequence (Q00987 whole entry S395D): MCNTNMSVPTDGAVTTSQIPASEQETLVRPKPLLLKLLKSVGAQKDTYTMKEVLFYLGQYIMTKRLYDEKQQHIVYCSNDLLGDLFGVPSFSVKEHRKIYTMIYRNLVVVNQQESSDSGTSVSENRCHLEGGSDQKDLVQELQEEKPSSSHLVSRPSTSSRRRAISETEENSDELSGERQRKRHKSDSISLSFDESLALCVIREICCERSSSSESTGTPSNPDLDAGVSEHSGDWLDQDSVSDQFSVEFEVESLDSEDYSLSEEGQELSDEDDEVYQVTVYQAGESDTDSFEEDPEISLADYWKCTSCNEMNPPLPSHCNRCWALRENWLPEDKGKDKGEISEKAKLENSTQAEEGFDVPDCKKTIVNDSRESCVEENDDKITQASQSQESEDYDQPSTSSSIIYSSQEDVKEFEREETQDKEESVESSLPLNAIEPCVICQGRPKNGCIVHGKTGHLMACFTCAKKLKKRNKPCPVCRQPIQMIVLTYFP

With “AUGGAGGAGCCGCAGUCAGAUCCUAGCGUCGAGCCCCCUCUGAGUCAGGAAACAUUUUCAGACCUAUGGAAACUACUUCCUGAAAACAACGUUCUGUCCCCCUUGCCGUCCCAAGCAAUGGAUGAUUUGAUGCUGUCCCCGGACGAUAUUGAACAAUGGUUCACUGAAGACCCAGGUCCAGAUGAAGCUCCCAGAAUGCCAGAGGCUGCUCCCCCCGUGGCCCCUGCACCAGCAGCUCCU [p53 mRNA +1 to +240 WT]”, the binding signal (fold increase over no BOX-I oligo) was found to be 60.
